Test results published in PMC4450660, “Biochemical and Structural Characterization of Enolase from Chloroflexus aurantiacus: Evidence for a Thermophilic Origin” (Frontiers in Bioengineering and Biotechnology, 2015).

Molecular target: the molecule itself
Assay: SEC; native molecular weight of purified EnoCa (~92-96 kDa against a ~46 kDa subunit on SDS gel); gel filtration on Sephacryl S-300 (2.5 x 100 cm), 1 ml/min, is a step of the purification; the data are in Figures S1-S3

B1: enolase-1 from Chloroflexus aurantiacus (enzyme, Chloroflexus aurantiacus strain J.10.fl., UniProt A9WCM4 1-426, looked up)
chain: MSTLIEAIVAREVLDSRGNPTIEVDVRLESGDVGRAIVPSGASTGAHEALELRDGDKSRYNGKGVLKAVQAVNEDIAEALIGFDAADQIALDQELIALDGTPNKSKLGANAILGVSLAAAKAAAAAFGLPLYRYLGGVYAHVLPVPMMNIMNGGQHATNSTDFQEFMIMPVGAESFREGLRWGAEIYHMLKKVIHDRGFSTTVGDEGGFAPSLPTNDAPLQLIMEAIEKAGYRPGEQIVIALDPATTEIFEDGKYHLKREGRSLSSAEMVDYWVDLVNRYPIISLEDGLAEDDWEGWALLRAKLGDRVQLVGDDFLVTNVQRLQRAIEAKAANSILIKLNQIGSLTETLSAIQLAQRSGWTAVVSHRSGESEDVTIADLVVATNAGQIKTGAPARTDRIAKYNQLLRIEEELGSAARYAGRSAFKV
notes: enolase-1 (2-phospho-D-glycerate hydrolyase, EC 4.2.1.11) of Chloroflexus aurantiacus strain J.10.fl., endogenous protein; subunit ~46 kDa by SDS-PAGE; Native protein purified from the organism, no tags; also called EnoCa; EnoCa-1
stoichiometry N: 2
